Assay [1] has as its target T1, human integrin α5β1 on cells (endogenous, HUVEC; tumor or endothelial-expressed) (human, UniProt P08648 42-1049; P05556 21-798). Put plainly: cell-based or functional assay.
Assay [2] deals with T1, human integrin α5β1 on cells …. Kind of assay: FACS on HUVEC (endogenous human α5β1), GeoMean against mAb concentration, fitted; experiment 030207.
Assay [3] shares this target. Kind of assay: cell-based or functional assay. The source holds these as a separate data set.
Assay [4] shares this target. Put plainly: FACS on HUVEC (endogenous human α5β1), GeoMean against mAb concentration, fitted; experiment 031307. As for the experimental part:
The 22B5/DLE, 24C7/DLE, 1 D9/DLE, and 2D2/DLE antibodies were tested for their binding affinity to cell surface integrin α5 using a FACS assay, employing endogenous human integrin α5β1 expressing cells (HUVEC). Briefly, the cells were detached using trypsin-EDTA and washed with cold PBS. After being aliquoted into 96-well plates, the cells were blocked by serum and incubated with different concentrations of specific mAb for 1 hour at 4° C. Subsequently, the cells were washed and incubated with an anti-human κ secondary antibody conjugated with the R-PE fluorophore and analyzed using a FACSCalibur flow cytometer. 10,000 events were collected for each sample without applying any gating. For KD determination, the Geometric Mean of each sample histogram was calculated and plotted as a function of the mAb concentration. KD was calculated after fitting to a two-state equilibrium model.

T1 sequence (P08648 42-1049, chain 1 of 2): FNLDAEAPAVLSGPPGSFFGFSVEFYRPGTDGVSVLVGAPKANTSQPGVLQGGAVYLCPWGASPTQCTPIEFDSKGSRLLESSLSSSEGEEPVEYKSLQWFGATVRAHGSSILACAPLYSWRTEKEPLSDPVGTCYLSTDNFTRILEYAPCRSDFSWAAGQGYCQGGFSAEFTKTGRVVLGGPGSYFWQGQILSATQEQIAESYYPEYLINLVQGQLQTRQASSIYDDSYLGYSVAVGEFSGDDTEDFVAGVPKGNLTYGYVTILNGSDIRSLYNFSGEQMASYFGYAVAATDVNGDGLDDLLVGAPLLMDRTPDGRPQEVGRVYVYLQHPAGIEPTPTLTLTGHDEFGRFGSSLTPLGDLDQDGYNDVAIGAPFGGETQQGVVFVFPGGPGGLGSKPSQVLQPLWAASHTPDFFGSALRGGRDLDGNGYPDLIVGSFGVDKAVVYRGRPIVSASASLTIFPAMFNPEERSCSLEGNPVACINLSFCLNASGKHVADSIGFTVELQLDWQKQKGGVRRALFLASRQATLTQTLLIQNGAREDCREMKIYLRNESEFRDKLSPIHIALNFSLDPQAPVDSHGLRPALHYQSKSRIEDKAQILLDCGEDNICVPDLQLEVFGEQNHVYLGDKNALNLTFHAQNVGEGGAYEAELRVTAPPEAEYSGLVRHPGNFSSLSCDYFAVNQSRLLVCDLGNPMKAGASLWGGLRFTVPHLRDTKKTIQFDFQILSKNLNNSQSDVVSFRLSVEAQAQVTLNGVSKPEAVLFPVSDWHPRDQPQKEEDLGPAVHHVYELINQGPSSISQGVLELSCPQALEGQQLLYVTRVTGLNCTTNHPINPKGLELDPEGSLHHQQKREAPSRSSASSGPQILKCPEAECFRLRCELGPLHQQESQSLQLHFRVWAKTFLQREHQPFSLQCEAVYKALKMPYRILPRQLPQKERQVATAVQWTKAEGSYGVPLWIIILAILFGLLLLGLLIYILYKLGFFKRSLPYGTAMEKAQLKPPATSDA
T1 sequence (P05556 21-798, chain 2 of 2): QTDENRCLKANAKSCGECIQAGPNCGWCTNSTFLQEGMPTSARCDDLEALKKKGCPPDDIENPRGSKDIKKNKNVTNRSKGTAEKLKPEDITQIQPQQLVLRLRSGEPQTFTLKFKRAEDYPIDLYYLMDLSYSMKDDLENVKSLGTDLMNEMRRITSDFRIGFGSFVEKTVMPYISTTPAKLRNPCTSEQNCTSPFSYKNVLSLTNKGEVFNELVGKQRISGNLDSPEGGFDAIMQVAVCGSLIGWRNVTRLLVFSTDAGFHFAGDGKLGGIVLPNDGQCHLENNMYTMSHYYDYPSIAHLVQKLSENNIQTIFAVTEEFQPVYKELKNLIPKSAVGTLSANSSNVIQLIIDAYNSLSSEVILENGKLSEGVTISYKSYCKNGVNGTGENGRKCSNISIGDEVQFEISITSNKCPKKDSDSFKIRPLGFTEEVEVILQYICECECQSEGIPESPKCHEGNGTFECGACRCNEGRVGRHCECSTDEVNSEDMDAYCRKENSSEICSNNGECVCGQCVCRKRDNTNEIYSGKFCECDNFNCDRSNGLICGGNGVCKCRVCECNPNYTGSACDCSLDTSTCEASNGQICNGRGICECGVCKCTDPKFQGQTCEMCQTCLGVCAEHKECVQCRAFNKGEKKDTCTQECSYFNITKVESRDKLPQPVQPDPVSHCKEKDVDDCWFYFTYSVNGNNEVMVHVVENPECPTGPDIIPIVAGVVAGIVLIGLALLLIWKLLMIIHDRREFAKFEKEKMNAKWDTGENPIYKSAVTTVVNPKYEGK

B1: 22B5 wild type IgG1 (antibody, V domains shown)
VH: QLQLQESGPGLVKPSETLSLTCTVSGGSISSSSYWGWIRQPPGKGLEWIGSIYYSGRNYNNPSLKSRVTISVDTSKNQFSLKLSSVTAADTAVYYCARHYYGSGSSYYYYDLDVWGQGTTVTVSS
VL: EIVLTQSPATLSLSPGERATLSCRASQSVSSYLAWYQQKPGQAPRLLIYDASNRATGIPARFSGSGSGTDFTLTISSLEPEDFAVYYCQQRSNWPLTFGGGTKVEIK
notes: Human IgG1 with wild type Fc (no DLE mutations); also called 22B5 wt IgG1; wt 22B5 IgG1
As usually defined, the Kd is the free concentration of one partner at which half of the binding sites on the other are occupied at equilibrium, for simple one-to-one binding. As to B1, the “IC50, inhibition of HUVEC adhesion to fibronectin (fluorescence 485/535 nM)” value (“IC50, inhibition of HUVEC adhesion” below) in assay [1] was 0.43 nM. The same molecule yielded a Kd in assay [2] of 1.95 nM. The “ADCC EC50, human PBMCs” value in assay [3] stood at 0.23 nM.

B2: 22B5 IgG4 (antibody, V domains shown)
VH: QLQLQESGPGLVKPSETLSLTCTVSGGSISSSSYWGWIRQPPGKGLEWIGSIYYSGRNYNNPSLKSRVTISVDTSKNQFSLKLSSVTAADTAVYYCARHYYGSGSSYYYYDLDVWGQGTTVTVSS
VL: EIVLTQSPATLSLSPGERATLSCRASQSVSSYLAWYQQKPGQAPRLLIYDASNRATGIPARFSGSGSGTDFTLTISSLEPEDFAVYYCQQRSNWPLTFGGGTKVEIK
Consider B2, for which the “IC50, inhibition of HUVEC adhesion” value in assay [1] was 0.57 nM.

B3: 1D9 (antibody, IgG1, V domains shown)
VH: QVQLVESGGGVVQPGRSLRLSCAASGFPFSTYAMHWVRQAPGKGLEWVAVISYDGSNKYYADSVKGRFTISRDNSKNTLYLQMNSLRAEDTAVYYCARESPPIYYYYGMDVWGQGTTVTVSS
VL: EIVLTQSPATLSLSPGERATLSCRASQSVSSYLAWYQQKPGQAPRLLIYDASNRATGIPARFSGSGSGTDFTLTISSLEPEDFAVYYCQQRSNWPRTFGQGTKVEIK
notes: also called 1D9 G1; I D9
B3 displayed a Kd in assay [2] of 1.69 nM.

B4: 22B5 IgG2 (antibody, V domains shown)
VH: QLQLQESGPGLVKPSETLSLTCTVSGGSISSSSYWGWIRQPPGKGLEWIGSIYYSGRNYNNPSLKSRVTISVDTSKNQFSLKLSSVTAADTAVYYCARHYYGSGSSYYYYDLDVWGQGTTVTVSS
VL: EIVLTQSPATLSLSPGERATLSCRASQSVSSYLAWYQQKPGQAPRLLIYDASNRATGIPARFSGSGSGTDFTLTISSLEPEDFAVYYCQQRSNWPLTFGGGTKVEIK
With B4, in assay [1], the “IC50, inhibition of HUVEC adhesion” value is 0.37 nM.

B5: 1D9/DLE (antibody, V domains shown)
VH: QVQLVESGGGVVQPGRSLRLSCAASGFPFSTYAMHWVRQAPGKGLEWVAVISYDGSNKYYADSVKGRFTISRDNSKNTLYLQMNSLRAEDTAVYYCARESPPIYYYYGMDVWGQGTTVTVSS
VL: EIVLTQSPATLSLSPGERATLSCRASQSVSSYLAWYQQKPGQAPRLLIYDASNRATGIPARFSGSGSGTDFTLTISSLEPEDFAVYYCQQRSNWPRTFGQGTKVEIK
notes: also called 1D9 IgG1 DLE; 1D9 G1 DLE
Consider B5, for which the values for the Kd in assay [2] and in assay [4] were 1.68 nM and 1.49 nM, respectively.

B6: 2D2/DLE (antibody, IgG1, V domains shown)
VH: QVQLVESGGGVVQPGRSLRLSCAASGFTFSSYAMHWVRQAPGKGLEWVAVISFDGSTKYYADSVKGRFTISRDNSKNTLDLQMNSLRAEDTALYYCAREYWGTYYYGTDVWGQGTTVIVSS
VL: EIVLTQSPATLSLSPGERATLSCRASQSVNSYLAWYQQKPGQAPRLLIYDASNRATGIPARFSGSGSGTDFTLTISSLEPEDFAVYYCQQRSNWPRTFGQGTKVEIK
notes: Constant regions: see the note of 1D9/DLE; also called 2D2 IgG1 DLE
As to B6, the Kd in assay [2] worked out at 8.78 nM; in assay [4], 7.32 nM.

These data come from US20100330078A1 (Pfizer, published 2010).
